In patent US20180036364A1, “METHODS OF TREATING CANCER WITH A PSMA LIGAND-TUBULYSIN COMPOUND” (priority 2015, published 2018):

Experiments:
Type in all cases: in vivo, human
[1] = test system: metastatic, castration-resistant prostate cancer (mCRPC); test: Phase 1 dose-escalation study: preliminary efficacy; conditions: 21 mCRPC patients
Description: In one aspect, a clinical benefit of the patient to treatment with PSMA ligand-tubulysin compound I can be characterized utilizing Response Evaluation Criteria in Solid Tumors (RECIST) criteria. Illustratively, the criteria have been adapted from the original WHO Handbook (3), taking into account the measurement of the longest diameter for all target lesions: complete response, (CR)—the disappearance of all target lesions; partial response (PR)—at least a 30% decrease in the sum of the longest diameter of target lesions, taking as reference the baseline sum longest diameter; stable disease (SD)—neither sufficient shrinkage to qualify for partial response nor sufficient increase to qualify for progressive disease, taking as reference the smallest sum longest diameter since the treatment started; progressive disease (PD)—at least a 20% increase in the sum of the longest diameter of target lesions, taking as reference the smallest sum longest diameter recorded since the treatment started or the appearance of one or more new lesions. In another aspect overall disease response rate (ORR) is a clinical benefit and is calculated as the percent of patients who achieve a best response of CR or PR. Overall disease control rate (DCR) can be another clinical benefit and is calculated as the percent of patients who achieve a best response of CR, PR, or SD. […]

[2] = Phase 1 dose-escalation study: pharmacokinetics; conditions: mCRPC patients, IV bolus
Method: (§1) This is a Phase 1, multicenter, open-label, non-randomized, dose-escalation oncology study in which EC1169 was dosed three times weekly (TIW), on Weeks 1 and 2 of a 3-week schedule or once weekly dosing (QW) on Weeks 1 and 2 of a 3-week schedule to assess toxicity, safety and preliminary efficacy results in patients with metastatic, castration-resistant prostate cancer (mCRPC) who have progressed on abiraterone and/or enzalutamide, and have been previously treated with a taxane except in cases of contraindication (e.g. poor performance status, age or personal choice). Patients were also dosed with 99mTc-EC0652 and underwent a SPECT/CT scan (or SPECT scan if no SPECT/CT is available) to evaluate EC0652 as an imaging agent to identify PSMA expression.
(§2) II. PSMA-Tubulysin Compound I Administration: PSMA ligand-tubulysin compound I was administered at least 4 days after PSMA Imaging Agent Ma was administered, as an intravenous bolus injection, TIW on Weeks 1 and 2 (i.e., on Days 1, 3, 5, 8, 10, 12 of a 3-week cycle) or once weekly on Weeks 1 and 2 of a 3-week schedule.

[3] = Phase 1 dose-escalation study: toxicity and safety
Method: as §1
Prior dose escalation methodology for both schedules was based the continuous reassessment method (CRM), in which 1 patient is assigned to 1 dose level. Subsequent patients were to be enrolled upon the first observation of DLT, at which time enrollment to that dose level would be expanded to a maximum of 6 patients. An alternative dose escalation methodology for both schedules was based upon the standard “3+3” approach, in which a minimum of 3 patients is enrolled to a given dose level. Following the first observation of a DLT, the dose level is then expanded to a maximum of 6 patients.
Patients received an injection of 0.1 mg of PSMA Imaging Agent IIa labeled with 20-25 mCi of technetium-^99m (PSMA Imaging Agent Ma). Patients were subjected to SPECT/CT imaging of the region(s) known to contain target lesion(s) approximately 3-4 hours after injection of PSMA Imaging Agent Ma (^99mTc-EC0652). For sites where SPECT/CT imaging is not available, SPECT imaging alone was carried out.
as §2
DLTs will be based on events occurring in Part A during the first cycle of therapy and the adverse events must be drug related (i.e. definitely, probably or possibly): • ≧Grade 4 hematological toxicity. • Grade 3 neutropenia with fever>38.5° C. and/or infection requiring antibiotic or antifungal treatment. • Grade 3 neutropenia persisting for >5 days. • Grade 3 thrombocytopenia with clinically significant hemorrhage requiring platelet transfusion. • ≧Grade 3 non-hematological toxicity. Grade 3 laboratory abnormalities (e.g., K or Mg) that persist for less than 48 hours are not considered DLTs. • Grade 3 nausea, vomiting lasting more than 72 hours. • A delay of >2 weeks in the scheduled administration of Compound I due to drug-related toxicity.
• Schedule #1: TIW Dosing Schedule: Inability to administer at least 4 of the 6 scheduled doses of PSMA ligand-tubulysin compound I in a cycle due to drug-related toxicity. • Schedule #2: Once Weekly Dosing Schedule: Inability to administer both scheduled doses of PSMA ligand-tubulysin compound I in a cycle due to drug-related toxicity.
PSMA imaging conjugate IIIa and PSMA ligand-tubulysin compound I was administered via IV bolus injection.

[4] = 21 mCRPC patients, both schedules

Structure (SMILES): CCCC(=O)OCN(C(=O)[C@@H](NC(=O)[C@H]1CCCCN1C)C(C)CC)[C@H](C[C@@H](OC(C)=O)c1nc(C(=O)N[C@@H](Cc2ccc(O)cc2)C[C@H](C)C(=O)NNC(=O)OCCSSC[C@H](NC(=O)[C@H](CC(=O)O)NC(=O)[C@H](CC(=O)O)NC(=O)Cc2ccc(CNC(=O)NCCCC[C@H](NC(=O)N[C@@H](CCC(=O)O)C(=O)O)C(=O)O)cc2)C(=O)O)cs1)C(C)C (some centres unmarked) [EC1169]
- patients with a 50% decrease in PSA [1]: No patient
- patients with stable disease lasting more than 4 cycles [1]: 3 patients
- AUC [2]: Dose proportionate increases
- Cmax [2]: Dose proportionate increases
- DR Grade 3-4 toxicity or serious adverse events [3, 4]: no
- on-study deaths [3, 4]: no
- occurrences of dose limiting toxicity ([3]; 21 mCRPC patients, both schedules, cycle 1): no
- patients with drug-related (DR) adverse events (AE's) ([3]; 21 patients evaluated for cycle 1 toxicity, both schedules, IV bolus): 9 of 21
- drug-related adverse events occurring in >1 patient ([3]; Schedule #1 (TIW, Weeks 1 and 2 of 3-week cycle), 5 pts): No DRAE occurred in >1 Schedule #1 patient
- drug-related adverse events reported in ≧2 patients ([3]; Schedule #2 (once weekly, Weeks 1 and 2 of 3-week cycle), 16 pts): Vomiting and fatigue were the only DRAE's
- tolerability ([3]; mCRPC patients): well tolerated
